Source: the supplement of paper PMC6757056
± gives the standard deviation of the averaged measurements.

B1: library; a variant is named by its letters at N, in order (parent)
chain: GCUGUCACCGGUGUAUUACCCUAGUGGUCGACCGGUCUGAUGAGUCUNNNNNNAGACGAAACAGC

What was measured:
hypoxanthine [1] = variants of: B1; assay: FACS-Seq fitted mean relative fluorescence mCherry/BFP without ligand (log10 relative fluorescence); ligand: hypoxanthine (xanthine aptamer); higher = higher reporter protein expression; details: HEK293T, ligand present: no
Procedure, shortened: (§1)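 Enriched HEK293T cells carrying, by lentivirus, an mCherry reporter with the ribozyme switch and an EF1α-BFP marker spent 48 h with or without ligand and were sorted into 6 bins by mCherry/BFP. MiSeq sequencing of PCR-amplified bin genomic DNA gave bin counts. Fluorescence was calculated as the fitted normal mean of those counts. Counts were binned on log10(mCherry/BFP), and means were scaled to five spiked-in control ribozymes.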

hypoxanthine [2] = variants of: B1; assay: normalized RNA/DNA level with ligand (relative to sTRSVctl = 100) (log10 (% of sTRSVctl)); ligand: hypoxanthine (xanthine aptamer); higher = less ribozyme self-cleavage, higher mRNA level; details: ligand concentration (+) RNA-Seq: 5 mM, HEK293T, reporter: mCherry (pCS4076), ligand present: yes
Method: (§2)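 Hammerhead (sTRSV) ribozyme switch libraries with a ligand aptamer grafted on stem I and a randomized N4-6 loop II, cloned into the 3' UTR of mCherry and transiently transfected into HEK293T cells; RNA-Seq 72 h post transfection with ligand added 1 h before transfection; RNA read count / plasmid DNA read count normalized to the non-cleaving sTRSVctl (x100), log10; sequences with >100 DNA reads. FACS-Seq: lentiviral library sorted into 6 bins after 48 h ligand, log-normal fit mean of mCherry/BFP scaled to controls. Printed sequences are partial switch sequences.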

hypoxanthine [3] = variants of: B1; assay: normalized RNA/DNA level without ligand (relative to sTRSVctl = 100) (log10 (% of sTRSVctl)); ligand: hypoxanthine (xanthine aptamer); higher = less ribozyme self-cleavage, higher mRNA level; details: HEK293T, reporter: mCherry (pCS4076), ligand present: no
Method: as §2

hypoxanthine [4] = variants of: B1; assay: FACS-Seq fitted mean relative fluorescence mCherry/BFP with ligand (log10 relative fluorescence); ligand: hypoxanthine (xanthine aptamer); ligand concentration (+) FACS-Seq: 5 mM; higher = higher reporter protein expression; details: HEK293T, ligand present: yes
Procedure, shortened: as §1

Variant	FACS-Seq fitted mean (log10) (hypoxanthine [1])	normalized RNA/DNA level with ligand (log10) (hypoxanthine [2])	normalized RNA/DNA level without ligand (log10) (hypoxanthine [3])	FACS-Seq fitted mean (log10) (hypoxanthine [4])
GCUGUCACCGGUGUAUUACCCUAGUGGUCGACCGGUCUGAUGAGUCUGCGACGAGACGAAACAGC	0.442 ± 0.017	1.81 ± 0.021	1.3 ± 0.099	0.666 ± 0.035
GCUGUCACCGGUGUAUUACCCUAGUGGUCGACCGGUCUGAUGAGUCUGCGACCAGACGAAACAGC	0.07588 ± 0.00049	1.88 ± 0.025	1.52 ± 0.038	0.5 ± 0.093
GCUGUCACCGGUGUAUUACCCUAGUGGUCGACCGGUCUGAUGAGUCUGCGACAAGACGAAACAGC	0.145 ± 0.041	1.888 ± 0.012	1.57 ± 0.04	0.28 ± 0.021
GCUGUCACCGGUGUAUUACCCUAGUGGUCGACCGGUCUGAUGAGUCUUCGAAGAGACGAAACAGC	0.5 ± 0.074	1.87 ± 0.039	1.417 ± 0.0057	0.746 ± 0.025
GCUGUCACCGGUGUAUUACCCUAGUGGUCGACCGGUCUGAUGAGUCUACGACGAGACGAAACAGC	0.162 ± 0.0022	1.82 ± 0.045	1.26 ± 0.019	0.706 ± 0.059
GCUGUCACCGGUGUAUUACCCUAGUGGUCGACCGGUCUGAUGAGUCUACGACUAGACGAAACAGC	0.28 ± 0.024	1.84 ± 0.039	1.59 ± 0.0056	0.447 ± 0.037
GCUGUCACCGGUGUAUUACCCUAGUGGUCGACCGGUCUGAUGAGUCUACGACAAGACGAAACAGC	0.53 ± 0.013	1.912 ± 0.013	1.638 ± 0.016	0.613 ± 0.031
GCUGUCACCGGUGUAUUACCCUAGUGGUCGACCGGUCUGAUGAGUCUCCGACCAGACGAAACAGC	0.287 ± 0.081	2.08 ± 0.082	1.85 ± 0.063	0.555 ± 0.015
GCUGUCACCGGUGUAUUACCCUAGUGGUCGACCGGUCUGAUGAGUCUCCGACGAGACGAAACAGC	0.527 ± 0.0072	1.9241 ± 0.0017	1.685 ± 0.0014	0.6331 ± 0.0049
GCUGUCACCGGUGUAUUACCCUAGUGGUCGACCGGUCUGAUGAGUCUCCGACUAGACGAAACAGC	0.195 ± 0.058	1.989 ± 0.013	1.82 ± 0.038	0.381 ± 0.0067
GCUGUCACCGGUGUAUUACCCUAGUGGUCGACCGGUCUGAUGAGUCUGCGAAUAGACGAAACAGC	-0.142 ± 0.009	1.833 ± 0.015	1.417 ± 0.013	0.291 ± 0.022
GCUGUCACCGGUGUAUUACCCUAGUGGUCGACCGGUCUGAUGAGUCUGCGAAGAGACGAAACAGC	-0.383 ± 0.014	1.46 ± 0.12	0.925 ± 0.14	0.417 ± 0.06
GCUGUCACCGGUGUAUUACCCUAGUGGUCGACCGGUCUGAUGAGUCUGCGAGAAGACGAAACAGC	-0.0976 ± 0.016	1.8 ± 0.042	1.31 ± 0.0073	0.312 ± 0.025
GCUGUCACCGGUGUAUUACCCUAGUGGUCGACCGGUCUGAUGAGUCUACGAAUAGACGAAACAGC	0.0248 ± 0.013	1.77 ± 0.0059	1.19 ± 0.025	0.504 ± 0.01
GCUGUCACCGGUGUAUUACCCUAGUGGUCGACCGGUCUGAUGAGUCUACGAAGAGACGAAACAGC	-0.023 ± 0.0073	1.49 ± 0.041	1.072 ± 0.0031	0.501 ± 0.023
GCUGUCACCGGUGUAUUACCCUAGUGGUCGACCGGUCUGAUGAGUCUCCGAAGAGACGAAACAGC	-0.0351 ± 0.034	1.719 ± 0.0075	1.2 ± 0.14	0.496 ± 0.027
GCUGUCACCGGUGUAUUACCCUAGUGGUCGACCGGUCUGAUGAGUCUACGAGCAGACGAAACAGC	0.0832 ± 0.041	1.84 ± 0.049	1.27 ± 0.045	0.585 ± 0.029
GCUGUCACCGGUGUAUUACCCUAGUGGUCGACCGGUCUGAUGAGUCUACGAGAAGACGAAACAGC	-0.0663 ± 0.023	1.67 ± 0.045	1.14 ± 0.019	0.488 ± 0.018
GCUGUCACCGGUGUAUUACCCUAGUGGUCGACCGGUCUGAUGAGUCUUCGAGAAGACGAAACAGC	0.0619 ± 0.098	1.74 ± 0.046	1.16 ± 0.086	0.455 ± 0.15
GCUGUCACCGGUGUAUUACCCUAGUGGUCGACCGGUCUGAUGAGUCUCCGAGGAGACGAAACAGC	0.00201 ± 0.0053	1.839 ± 0.0063	1.37 ± 0.038	0.423 ± 0.024
GCUGUCACCGGUGUAUUACCCUAGUGGUCGACCGGUCUGAUGAGUCUCCGAGAAGACGAAACAGC	0.353 ± 0.076	1.87 ± 0.042	1.51 ± 0.046	0.648 ± 0.061
